Experimental data taken from patent US20040092714A1.

Molecular target: OSCAR specific ligand expressed on the surface of primary murine osteoblast cells (murine)
Experiment: cell-based or functional assay

dentine resorption pits per slice (pits per slice): 7
inhibition of dentine resorption (fold): > 10 fold
Substance: soluble murine OSCAR-Ig fusion polypeptide (extracellular domain of murine OSCAR fused to the Fc region of human IgG1) (Fc fusion)
